According to patent US20190233495A1 (Sanofi, published 2019):
Non-standard residues stand in square brackets, D forms with d. 1Nal = N[C@@H](Cc1cccc2ccccc12)C(=O)O; Nle = CCCC[C@H](N)C(=O)O; Aib = CC(C)(N)C(=O)O

T1: RXFP1 receptor (UniProt Q9HBX9 1-757, limits assumed)
T1 sequence (looked up): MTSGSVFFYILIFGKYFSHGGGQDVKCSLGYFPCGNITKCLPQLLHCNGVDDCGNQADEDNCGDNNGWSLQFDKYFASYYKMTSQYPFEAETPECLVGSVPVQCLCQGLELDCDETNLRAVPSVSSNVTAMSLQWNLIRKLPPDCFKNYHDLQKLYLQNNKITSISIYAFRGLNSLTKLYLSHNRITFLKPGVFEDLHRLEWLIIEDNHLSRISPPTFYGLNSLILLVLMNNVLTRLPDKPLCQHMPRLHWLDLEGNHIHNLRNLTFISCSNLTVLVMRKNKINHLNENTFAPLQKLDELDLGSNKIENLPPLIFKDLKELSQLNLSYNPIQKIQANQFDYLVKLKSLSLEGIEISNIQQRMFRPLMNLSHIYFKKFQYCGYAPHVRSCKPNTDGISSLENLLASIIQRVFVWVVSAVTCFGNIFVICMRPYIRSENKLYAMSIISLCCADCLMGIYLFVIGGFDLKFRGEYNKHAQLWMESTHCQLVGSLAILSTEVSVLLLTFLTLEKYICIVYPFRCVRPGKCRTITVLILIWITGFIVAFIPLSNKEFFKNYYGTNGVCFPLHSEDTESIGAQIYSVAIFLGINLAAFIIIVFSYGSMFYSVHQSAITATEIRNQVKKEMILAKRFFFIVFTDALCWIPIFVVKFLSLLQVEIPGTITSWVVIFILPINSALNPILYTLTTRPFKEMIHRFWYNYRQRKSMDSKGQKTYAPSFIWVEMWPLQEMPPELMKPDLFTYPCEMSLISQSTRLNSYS


Target: T1, RXFP1 receptor
Experiment: cell-based or functional assay

Binder	cAMP assay in OVCAR 5 cells EC50 [nM]	cAMP assay in OVCAR 5 cells Emax [%]
Ac-LEGREKVRAQI[Aib][Aib]EGQSTWS[Aib]RKK-NH2 (SMILES CC[C@H](C)[C@H](NC(=O)[C@H](CCC(N)=O)NC(=O)[C@H](C)NC(=O)[C@H](CCCNC(=N)N)NC(=O)[C@@H](NC(=O)[C@H](CCCCN)NC(=O)[C@H](CCC(=O)O)NC(=O)[C@H](CCCNC(=N)N)NC(=O)CNC(=O)[C@H](CCC(=O)O)NC(=O)[C@H](CC(C)C)NC(C)=O)C(C)C)C(=O)NC(C)(C)C(=O)NC(C)(C)C(=O)N[C@@H](CCC(=O)O)C(=O)NCC(=O)N[C@@H](CCC(N)=O)C(=O)N[C@@H](CO)C(=O)N[C@H](C(=O)N[C@@H](Cc1c[nH]c2ccccc12)C(=O)N[C@@H](CO)C(=O)NC(C)(C)C(=O)N[C@@H](CCCNC(=N)N)C(=O)N[C@@H](CCCCN)C(=O)N[C@@H](CCCCN)C(N)=O)[C@@H](C)O) [SEQ ID NO: 35]	15.8	
Ac-LEGREKVRAK(Ac)I[Aib][Aib]EG[Nle]STWS[Aib]RKQ-NH2 (SMILES CCCC[C@H](NC(=O)CNC(=O)[C@H](CCC(=O)O)NC(=O)C(C)(C)NC(=O)C(C)(C)NC(=O)[C@@H](NC(=O)[C@H](CCCCNC(C)=O)NC(=O)[C@H](C)NC(=O)[C@H](CCCNC(=N)N)NC(=O)[C@@H](NC(=O)[C@H](CCCCN)NC(=O)[C@H](CCC(=O)O)NC(=O)[C@H](CCCNC(=N)N)NC(=O)CNC(=O)[C@H](CCC(=O)O)NC(=O)[C@H](CC(C)C)NC(C)=O)C(C)C)[C@@H](C)CC)C(=O)N[C@@H](CO)C(=O)N[C@H](C(=O)N[C@@H](Cc1c[nH]c2ccccc12)C(=O)N[C@@H](CO)C(=O)NC(C)(C)C(=O)N[C@@H](CCCNC(=N)N)C(=O)N[C@@H](CCCCN)C(=O)N[C@@H](CCC(N)=O)C(N)=O)[C@@H](C)O) [SEQ ID NO: 31]	51.7	96
Ac-LEGREKVRAK(Ac)I[Aib][Aib]EG[Nle]STWS[Aib]RKL-NH2 (SMILES CCCC[C@H](NC(=O)CNC(=O)[C@H](CCC(=O)O)NC(=O)C(C)(C)NC(=O)C(C)(C)NC(=O)[C@@H](NC(=O)[C@H](CCCCNC(C)=O)NC(=O)[C@H](C)NC(=O)[C@H](CCCNC(=N)N)NC(=O)[C@@H](NC(=O)[C@H](CCCCN)NC(=O)[C@H](CCC(=O)O)NC(=O)[C@H](CCCNC(=N)N)NC(=O)CNC(=O)[C@H](CCC(=O)O)NC(=O)[C@H](CC(C)C)NC(C)=O)C(C)C)[C@@H](C)CC)C(=O)N[C@@H](CO)C(=O)N[C@H](C(=O)N[C@@H](Cc1c[nH]c2ccccc12)C(=O)N[C@@H](CO)C(=O)NC(C)(C)C(=O)N[C@@H](CCCNC(=N)N)C(=O)N[C@@H](CCCCN)C(=O)N[C@@H](CC(C)C)C(N)=O)[C@@H](C)O) [SEQ ID NO: 32]	38.6	95
Ac-LEGREKVRAK(Ac)I[Aib][Aib]EG[Nle]ST[1Nal]S[Aib]RKK(Ac)-NH2 (SMILES CCCC[C@H](NC(=O)CNC(=O)[C@H](CCC(=O)O)NC(=O)C(C)(C)NC(=O)C(C)(C)NC(=O)[C@@H](NC(=O)[C@H](CCCCNC(C)=O)NC(=O)[C@H](C)NC(=O)[C@H](CCCNC(=N)N)NC(=O)[C@@H](NC(=O)[C@H](CCCCN)NC(=O)[C@H](CCC(=O)O)NC(=O)[C@H](CCCNC(=N)N)NC(=O)CNC(=O)[C@H](CCC(=O)O)NC(=O)[C@H](CC(C)C)NC(C)=O)C(C)C)[C@@H](C)CC)C(=O)N[C@@H](CO)C(=O)N[C@H](C(=O)N[C@@H](Cc1cccc2ccccc12)C(=O)N[C@@H](CO)C(=O)NC(C)(C)C(=O)N[C@@H](CCCNC(=N)N)C(=O)N[C@@H](CCCCN)C(=O)N[C@@H](CCCCNC(C)=O)C(N)=O)[C@@H](C)O) [SEQ ID NO: 29]	13.8	98

The next lines start with the values.

cAMP assay in OVCAR 5 cells EC50 [nM]	cAMP assay in OVCAR 5 cells Emax [%]	Binder
14.1	99	Ac-LEGREKVRAQI[Aib][Aib]EGMSTWS[Aib]RKK-NH2 (SMILES CC[C@H](C)[C@H](NC(=O)[C@H](CCC(N)=O)NC(=O)[C@H](C)NC(=O)[C@H](CCCNC(=N)N)NC(=O)[C@@H](NC(=O)[C@H](CCCCN)NC(=O)[C@H](CCC(=O)O)NC(=O)[C@H](CCCNC(=N)N)NC(=O)CNC(=O)[C@H](CCC(=O)O)NC(=O)[C@H](CC(C)C)NC(C)=O)C(C)C)C(=O)NC(C)(C)C(=O)NC(C)(C)C(=O)N[C@@H](CCC(=O)O)C(=O)NCC(=O)N[C@@H](CCSC)C(=O)N[C@@H](CO)C(=O)N[C@H](C(=O)N[C@@H](Cc1c[nH]c2ccccc12)C(=O)N[C@@H](CO)C(=O)NC(C)(C)C(=O)N[C@@H](CCCNC(=N)N)C(=O)N[C@@H](CCCCN)C(=O)N[C@@H](CCCCN)C(N)=O)[C@@H](C)O) [SEQ ID NO: 4]
9.5	95	Ac-LEGREKVRAK(Ac)I[Aib][Aib]EG[Nle]STWS[Aib]RKK(Ac)K-NH2 (SMILES CCCC[C@H](NC(=O)CNC(=O)[C@H](CCC(=O)O)NC(=O)C(C)(C)NC(=O)C(C)(C)NC(=O)[C@@H](NC(=O)[C@H](CCCCNC(C)=O)NC(=O)[C@H](C)NC(=O)[C@H](CCCNC(=N)N)NC(=O)[C@@H](NC(=O)[C@H](CCCCN)NC(=O)[C@H](CCC(=O)O)NC(=O)[C@H](CCCNC(=N)N)NC(=O)CNC(=O)[C@H](CCC(=O)O)NC(=O)[C@H](CC(C)C)NC(C)=O)C(C)C)[C@@H](C)CC)C(=O)N[C@@H](CO)C(=O)N[C@H](C(=O)N[C@@H](Cc1c[nH]c2ccccc12)C(=O)N[C@@H](CO)C(=O)NC(C)(C)C(=O)N[C@@H](CCCNC(=N)N)C(=O)N[C@@H](CCCCN)C(=O)N[C@@H](CCCCNC(C)=O)C(=O)N[C@@H](CCCCN)C(N)=O)[C@@H](C)O) [SEQ ID NO: 27]
68.7	96	Ac-LEGREKVRK(Ac)[Aib]I[Aib][Aib]EG[Nle]STWS[Aib]RKK-NH2 (SMILES CCCC[C@H](NC(=O)CNC(=O)[C@H](CCC(=O)O)NC(=O)C(C)(C)NC(=O)C(C)(C)NC(=O)[C@@H](NC(=O)C(C)(C)NC(=O)[C@H](CCCCNC(C)=O)NC(=O)[C@H](CCCNC(=N)N)NC(=O)[C@@H](NC(=O)[C@H](CCCCN)NC(=O)[C@H](CCC(=O)O)NC(=O)[C@H](CCCNC(=N)N)NC(=O)CNC(=O)[C@H](CCC(=O)O)NC(=O)[C@H](CC(C)C)NC(C)=O)C(C)C)[C@@H](C)CC)C(=O)N[C@@H](CO)C(=O)N[C@H](C(=O)N[C@@H](Cc1c[nH]c2ccccc12)C(=O)N[C@@H](CO)C(=O)NC(C)(C)C(=O)N[C@@H](CCCNC(=N)N)C(=O)N[C@@H](CCCCN)C(=O)N[C@@H](CCCCN)C(N)=O)[C@@H](C)O) [SEQ ID NO: 34]
22.5	92	Ac-LEGREKVRAK(Ac)I[Aib][Aib]EG[Nle]STWS[Aib]RKK(Ac)K(Ac)-NH2 (SMILES CCCC[C@H](NC(=O)CNC(=O)[C@H](CCC(=O)O)NC(=O)C(C)(C)NC(=O)C(C)(C)NC(=O)[C@@H](NC(=O)[C@H](CCCCNC(C)=O)NC(=O)[C@H](C)NC(=O)[C@H](CCCNC(=N)N)NC(=O)[C@@H](NC(=O)[C@H](CCCCN)NC(=O)[C@H](CCC(=O)O)NC(=O)[C@H](CCCNC(=N)N)NC(=O)CNC(=O)[C@H](CCC(=O)O)NC(=O)[C@H](CC(C)C)NC(C)=O)C(C)C)[C@@H](C)CC)C(=O)N[C@@H](CO)C(=O)N[C@H](C(=O)N[C@@H](Cc1c[nH]c2ccccc12)C(=O)N[C@@H](CO)C(=O)NC(C)(C)C(=O)N[C@@H](CCCNC(=N)N)C(=O)N[C@@H](CCCCN)C(=O)N[C@@H](CCCCNC(C)=O)C(=O)N[C@@H](CCCCNC(C)=O)C(N)=O)[C@@H](C)O) [SEQ ID NO: 28]
86.3	105	Ac-LEGREKVRK(Ac)QI[Aib][Aib]EG[Nle]STWS[Aib]RKK-NH2 (SMILES CCCC[C@H](NC(=O)CNC(=O)[C@H](CCC(=O)O)NC(=O)C(C)(C)NC(=O)C(C)(C)NC(=O)[C@@H](NC(=O)[C@H](CCC(N)=O)NC(=O)[C@H](CCCCNC(C)=O)NC(=O)[C@H](CCCNC(=N)N)NC(=O)[C@@H](NC(=O)[C@H](CCCCN)NC(=O)[C@H](CCC(=O)O)NC(=O)[C@H](CCCNC(=N)N)NC(=O)CNC(=O)[C@H](CCC(=O)O)NC(=O)[C@H](CC(C)C)NC(C)=O)C(C)C)[C@@H](C)CC)C(=O)N[C@@H](CO)C(=O)N[C@H](C(=O)N[C@@H](Cc1c[nH]c2ccccc12)C(=O)N[C@@H](CO)C(=O)NC(C)(C)C(=O)N[C@@H](CCCNC(=N)N)C(=O)N[C@@H](CCCCN)C(=O)N[C@@H](CCCCN)C(N)=O)[C@@H](C)O) [SEQ ID NO: 33]
